Experimental data published in PMC9874840.

Biological target: human cyclophilin A (human) (UniProt P62937)
Assay: SPR

Sequence of human cyclophilin A (human) (P62937 whole entry): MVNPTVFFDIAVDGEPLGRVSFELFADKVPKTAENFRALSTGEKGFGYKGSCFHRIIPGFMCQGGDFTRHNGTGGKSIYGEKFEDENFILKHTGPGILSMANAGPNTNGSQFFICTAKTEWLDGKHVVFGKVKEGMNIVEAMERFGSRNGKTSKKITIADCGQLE

| Substance | Kd |
| --- | --- |
| SARS-CoV-2 RBD, Omicron variant (BA.1, B.1.1.529) (from UniProt P0DTC2) (domain or fragment) | 26.4 nM |
| SARS-CoV-2 RBD, Deltacron variant (AY.4/BA.1) (from UniProt P0DTC2) (domain or fragment) | 18.6 nM |
